In this test the target is T1, human FSH receptor (human, UniProt P23945 18-695).
T1 sequence (looked up): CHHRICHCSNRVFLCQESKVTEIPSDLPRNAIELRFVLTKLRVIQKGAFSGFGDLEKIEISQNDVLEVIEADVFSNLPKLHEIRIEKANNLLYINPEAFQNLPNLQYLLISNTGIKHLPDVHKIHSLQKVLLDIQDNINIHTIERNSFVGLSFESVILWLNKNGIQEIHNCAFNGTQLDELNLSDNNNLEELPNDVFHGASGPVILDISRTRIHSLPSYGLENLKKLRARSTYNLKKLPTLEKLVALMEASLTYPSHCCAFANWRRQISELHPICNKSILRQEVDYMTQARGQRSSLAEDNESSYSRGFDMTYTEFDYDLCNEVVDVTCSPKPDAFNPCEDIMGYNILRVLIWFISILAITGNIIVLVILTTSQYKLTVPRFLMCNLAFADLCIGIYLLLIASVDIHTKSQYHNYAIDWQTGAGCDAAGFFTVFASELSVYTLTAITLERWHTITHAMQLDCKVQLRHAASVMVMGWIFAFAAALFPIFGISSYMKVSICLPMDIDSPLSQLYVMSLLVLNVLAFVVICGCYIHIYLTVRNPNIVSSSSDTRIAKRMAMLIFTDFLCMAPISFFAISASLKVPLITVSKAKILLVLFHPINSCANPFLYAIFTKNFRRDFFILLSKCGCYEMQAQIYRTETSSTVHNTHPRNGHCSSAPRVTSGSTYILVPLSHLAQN
The experiment in a line: cell-based or functional assay.

The values below come from US20080280832A1 (LABORATOIRES SERONO, published 2008).

B1: Clone 15C- α D3N/β GM1 (ligand)
chain 1: not shown
chain 2: NSCELTNITIAIEKEECRFCISINTTWCAGYCYTRDLVYKDPARPKIQKTCTFKNLTYETVRVPGCAHHADSLYTYPVATQCHCGKCDSDSTDCTVRGLGPSYCSFGEMKE
For B1, the “EC50 M (cAMP production in CHO-FSHR cells)” value stood at 414 pM.
